One test has as its target human GLP-1 receptor (human, UniProt P43220 24-463). Put plainly: cell-based or functional assay.
A further test has as its target T1, human GIP receptor (human, UniProt P48546 22-466).
T1 sequence (looked up): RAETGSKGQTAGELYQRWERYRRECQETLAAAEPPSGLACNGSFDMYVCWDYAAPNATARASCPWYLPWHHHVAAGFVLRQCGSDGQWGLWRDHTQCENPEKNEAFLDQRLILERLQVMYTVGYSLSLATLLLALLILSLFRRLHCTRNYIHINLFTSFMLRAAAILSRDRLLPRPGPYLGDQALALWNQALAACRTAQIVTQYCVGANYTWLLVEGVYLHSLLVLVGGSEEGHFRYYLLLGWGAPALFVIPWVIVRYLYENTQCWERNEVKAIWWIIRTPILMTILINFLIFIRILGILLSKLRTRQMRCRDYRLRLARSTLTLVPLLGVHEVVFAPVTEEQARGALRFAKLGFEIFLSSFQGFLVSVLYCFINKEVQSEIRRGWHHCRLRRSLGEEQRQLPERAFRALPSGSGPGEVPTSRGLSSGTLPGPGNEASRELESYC
As to the kind of experiment: cell-based or functional assay.

Numbered stars: 1 amine (or outer) side, 2 acyl side, 3 side chain; on linkers, the order of the positions; unused ones are H or OH. Bridge positions count the residues as written; N and C are the ends. Square brackets hold non-standard residues; d marks the D form. Ends that are not written are not given here. * marks the point of attachment. HAY = 2-(4-hydroxyphenyl)acetic acid replacing N-terminal Tyr, O=C(Cc1ccc(O[*:3])cc1)[*:2]; Desaminotyrosyl = O=C(CCc1ccc(O)cc1)*; Nle = CCCC[C@H](N)C(=O)O; Aib = CC(C)(N)C(=O)O

Results on 14 molecules are retold here after patent US20230382970A1 (HANMI PHARM, published 2023).

As for Y[Aib]EGTFTSDYSKYLDEIRAKDFVQWLLDHHPSSGQPPPC (bridge 16-20) [GLP-1/GIP dual agonist of SEQ ID NO: 4], the “In vitro activity (%) compared to native-type peptide, vs human GLP-1 (cAMP EC50, human GLP-1 receptor-expressing CHO cells)” value with human GLP-1 receptor came to 1.9%. Besides, in the test with human GIP receptor, the “In vitro activity (%) compared to native-type peptide, vs human GIP (cAMP EC50, human GIP receptor-expressing CHO cells)” value came out at 18.5%.
Take Y[Aib]EGTFTSDYSI[Aib]LEKQAQQDFVNWLLAGGPSSGAPPPSC [GLP-1/GIP dual agonist of SEQ ID NO: 38]: the “In vitro activity (%) compared to native-type peptide, vs human GLP-1 (cAMP EC50, human GLP-1 receptor-expressing CHO cells)” value with human GLP-1 receptor is 14.3%. In addition, in the test with human GIP receptor, the “In vitro activity (%) compared to native-type peptide, vs human GIP (cAMP EC50, human GIP receptor-expressing CHO cells)” value worked out at 216%.
As to [HAY][Aib]EGTFTSDYSI[Aib]LDKIAQRAFVQWLIAGGPSSGAPPPSK [GLP-1/GIP dual agonist of SEQ ID NO: 32], in the test with human GLP-1 receptor, the “In vitro activity (%) compared to native-type peptide, vs human GLP-1 (cAMP EC50, human GLP-1 receptor-expressing CHO cells)” value is 88.3%. Also, the “In vitro activity (%) compared to native-type peptide, vs human GIP (cAMP EC50, human GIP receptor-expressing CHO cells)” value in the test with human GIP receptor was 20.1%.
The corresponding values for [Desaminotyrosyl][Aib]EGTFISDYSIALE[Nle]QAQQDFVNWLLAGGPSSGAPPPSK [GLP-1/GIP dual agonist of SEQ ID NO: 44] are 1.4% and 74.2%.
On to Y[Aib]EGTFTSDYSI[Aib]LDKQAARAFVQWLIAGGPSSGAPPPSC [GLP-1/GIP dual agonist of SEQ ID NO: 34], for which the “In vitro activity (%) compared to native-type peptide, vs human GLP-1 (cAMP EC50, human GLP-1 receptor-expressing CHO cells)” value with human GLP-1 receptor is 34.2%. The “In vitro activity (%) compared to native-type peptide, vs human GIP (cAMP EC50, human GIP receptor-expressing CHO cells)” value with human GIP receptor was determined as 63.4%.
With [Desaminotyrosyl][Aib]EGTFTSDYSI[Aib]LD[Nle]QAA[Aib]AFVQWLIAGGPSSGAPPPSK [GLP-1/GIP dual agonist of SEQ ID NO: 42], the “In vitro activity (%) compared to native-type peptide, vs human GLP-1 (cAMP EC50, human GLP-1 receptor-expressing CHO cells)” value in the test with human GLP-1 receptor was determined as 69.5%. Moreover, the “In vitro activity (%) compared to native-type peptide, vs human GIP (cAMP EC50, human GIP receptor-expressing CHO cells)” value with human GIP receptor was 35.9%.
With [Desaminotyrosyl][Aib]EGTFTSDYSI[Aib]LDAQAA[Aib]AFVQWLIAGGPSSGAPPPSK [GLP-1/GIP dual agonist of SEQ ID NO: 41], the “In vitro activity (%) compared to native-type peptide, vs human GLP-1 (cAMP EC50, human GLP-1 receptor-expressing CHO cells)” value in the test with human GLP-1 receptor is 117%. Moreover, the “In vitro activity (%) compared to native-type peptide, vs human GIP (cAMP EC50, human GIP receptor-expressing CHO cells)” value with human GIP receptor worked out at 58.7%.
The like results for Y[Aib]EGTFTSDYSI[Aib]LDKQAQQAFVQWLIAGGPSSGAPPPSC [GLP-1/GIP dual agonist of SEQ ID NO: 36] were, in that order, 79.9% and 217%.
The like results for Y[Aib]EGTFTSDYSI[Aib]LDKQHA[Aib]AFVQWLIAGGPSSGAPPPSC [GLP-1/GIP dual agonist of SEQ ID NO: 35] were, in that order, 9.6% and 64.2%.
The like results for [Desaminotyrosyl][Aib]EGTFISDYSIALEAQAQQDFVNWLLAGGPSSGAPPPSK [GLP-1/GIP dual agonist of SEQ ID NO: 43] were, in that order, 1.2% and 109%.
In the case of Y[Aib]EGTFTSDYSIALEKQAA[Aib]DFVNWLLAGGPSSGAPPPSC [GLP-1/GIP dual agonist of SEQ ID NO: 39], in the test with human GLP-1 receptor, the “In vitro activity (%) compared to native-type peptide, vs human GLP-1 (cAMP EC50, human GLP-1 receptor-expressing CHO cells)” value turned out to be 15.9%. Moreover, the “In vitro activity (%) compared to native-type peptide, vs human GIP (cAMP EC50, human GIP receptor-expressing CHO cells)” value with human GIP receptor was determined as 144%.
As to Y[Aib]EGTFTSDYSIALEKQAQRDFVNWLLAGGPSSGAPPPSC [GLP-1/GIP dual agonist of SEQ ID NO: 40], in the test with human GLP-1 receptor, the “In vitro activity (%) compared to native-type peptide, vs human GLP-1 (cAMP EC50, human GLP-1 receptor-expressing CHO cells)” value turned out to be 97.7%. Besides, the “In vitro activity (%) compared to native-type peptide, vs human GIP (cAMP EC50, human GIP receptor-expressing CHO cells)” value with human GIP receptor turned out to be 181%.
On to [Desaminotyrosyl][Aib]EGTFTSDYSI[Aib]LDKIAQRAFVQWLIAGGPSSGAPPPSK [GLP-1/GIP dual agonist of SEQ ID NO: 31], for which, in the test with human GLP-1 receptor, the “In vitro activity (%) compared to native-type peptide, vs human GLP-1 (cAMP EC50, human GLP-1 receptor-expressing CHO cells)” value came to 93.3%. Further, in the test with human GIP receptor, the “In vitro activity (%) compared to native-type peptide, vs human GIP (cAMP EC50, human GIP receptor-expressing CHO cells)” value was determined as 38.3%.
On to Y[Aib]EGTFTSDYSI[Aib]LDKQAQQ[Aib]FVQWLIAGGPSSGAPPPSC [GLP-1/GIP dual agonist of SEQ ID NO: 37], for which the “In vitro activity (%) compared to native-type peptide, vs human GLP-1 (cAMP EC50, human GLP-1 receptor-expressing CHO cells)” value with human GLP-1 receptor amounted to 45.2%. Further, the “In vitro activity (%) compared to native-type peptide, vs human GIP (cAMP EC50, human GIP receptor-expressing CHO cells)” value with human GIP receptor amounted to 174%.
